B1: Sso7d construct 4.1A03 (EGFR, Purif. No. 2) (designed binder)
chain: ATVKFTYQGEEKQVDISKIKIVDRYGQYIHFRYDEGGGANGWGWVSEKDAPKELLQMLEKQ
notes: Purified from E. coli on anti-APP columns; It is NGS hit no; 3, at 2.18%; also called Hit NO; not shown: APP tag of the vector
B2: Sso7d construct 4.4E10 (EGFR, Purif. No. 7) (designed binder)
chain: ATVKFTYQGEEKQVDISKIKIVDRYGQYIHFYYDEGGGADGWGWVSEKDAPKELLQMLEKQ
notes: Purified from E. coli on anti-APP columns; not shown: APP tag of the vector
B3: Sso7d construct 4.2B11 (EGFR, Purif. No. 6) (designed binder)
chain: ATVKFTYQGEEKQVDISKIKIVDRYGQNIHFNYDEGGGAWGWGWVSEKDAPKELLQMLEKQ
notes: Purified from E. coli on anti-APP columns; It is NGS hit no; 24, at 0.89%; also called Hit No. 24; not shown: APP tag of the vector
B4: Sso7d construct 4.2A08 (EGFR, Purif. No. 5) (designed binder)
chain: ATVKFTYQGEEKQVDISKIKIVDRYGQNIHFYYDEGGGANGWGWVSEKDAPKELLQMLEKQ
notes: Purified from E. coli on anti-APP columns; It is NGS hit 1, at 4.56%; also called Hit 1 NGS; not shown: APP tag of the vector
B5: Sso7d construct 4.1A02 (EGFR, Purif. No. 1) (designed binder)
chain: ATVKFTYQGEEKQVDISKIKIVDRYGQWIHFNYDEGGGAYGWGWVSEKDAPKELLQMLEKQ
notes: Purified from E. coli BL21(DE3) on anti-APP columns; It was found 1x on the plate and was not in the NGS Top30
B6: Sso7d construct 4.1H02 (EGFR, Purif. No. 4) (designed binder)
chain: ATVKFTYQGEEKQVDISKIKIVDRYGQWIHFRYDEGGGADGWGWVSEKDAPKELLQMLEKQ
notes: as for B2

This experiment has as its target T1, human EGFR on HKB11 cells stably over-expressing hEGFR (human, UniProt P00533 25-1210).
T1 construct: whole, on cells; The control lines were HKB11 w.t. cells, which express EGFR endogenously, and HKB11 EGFR knockout cells; also called HKB11_EGFR; HKB11-EGFR transfected
As to the kind of experiment: FACS of purified APP-tagged Sso7d on EGFR-overexpressing HKB11 cells versus EGFR knock out cells.
With B1, the binding result is “binds”.

For B2, the binding result is given as “binds”.

With B3, the binding result is recorded as “binds”.

With B4, the binding result is reported as “binds”.

B5: the binding result is given as “binds”.

For B6, the binding result is “binds”.
